# Measured values as given in the supplement of paper PMC5998384.
# Assays:
# [1] = test system: HeLa Kyoto; test: solubility in G1/S (NP-40 vs SDS abundance) (log2 ratio); higher = more soluble; details: cell cycle stage: G1/S
# [2] = test system: HeLa Kyoto; test: melting temperature (median over replicates), in situ; higher = more thermally stable
# [3] = test system: HeLa Kyoto; test: solubility change mitosis vs G1/S (difference of NP-40 vs SDS log2 ratios) (log2 ratio difference); higher = more soluble in mitosis
# [4] = test system: HeLa Kyoto; test: thermal stability score vs G1/S (z-score of summed log2 fold changes over temperatures); higher = more thermally stable than in G1/S
# [5] = cell cycle stage: early G1 (4.5 h after nocodazole release)
# 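For melting temperature (median over replicates), in situ in this document: HeLa Kyoto cells synchronized by double thymidine or nocodazole block, proteins quantified by TMT10plex mass spectrometry, three independent biological replicates.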
# 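For solubility change mitosis vs G1/S (difference of NP-40 vs SDS log2 ratios) in this document: synchronized HeLa Kyoto cells (double thymidine block for G1/S, nocodazole release for mitosis), protein amounts in NP-40 versus SDS lysates quantified by mass spectrometry, three biological replicates.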
# 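For solubility in G1/S (NP-40 vs SDS abundance) in this document: HeLa Kyoto cells arrested at G1/S by double thymidine block, proteins quantified by TMT10plex mass spectrometry in mild NP-40 versus SDS extracts, three biological replicates.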
# 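For thermal stability score vs G1/S (z-score of summed log2 fold changes over temperatures) in this document: synchronized HeLa Kyoto cells, proteins quantified by TMT10plex mass spectrometry, three biological replicates, mitosis taken 0.5 h after nocodazole release, G1/S directly after double thymidine block.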
# Sequence of DHX9 (chain, as listed by the source): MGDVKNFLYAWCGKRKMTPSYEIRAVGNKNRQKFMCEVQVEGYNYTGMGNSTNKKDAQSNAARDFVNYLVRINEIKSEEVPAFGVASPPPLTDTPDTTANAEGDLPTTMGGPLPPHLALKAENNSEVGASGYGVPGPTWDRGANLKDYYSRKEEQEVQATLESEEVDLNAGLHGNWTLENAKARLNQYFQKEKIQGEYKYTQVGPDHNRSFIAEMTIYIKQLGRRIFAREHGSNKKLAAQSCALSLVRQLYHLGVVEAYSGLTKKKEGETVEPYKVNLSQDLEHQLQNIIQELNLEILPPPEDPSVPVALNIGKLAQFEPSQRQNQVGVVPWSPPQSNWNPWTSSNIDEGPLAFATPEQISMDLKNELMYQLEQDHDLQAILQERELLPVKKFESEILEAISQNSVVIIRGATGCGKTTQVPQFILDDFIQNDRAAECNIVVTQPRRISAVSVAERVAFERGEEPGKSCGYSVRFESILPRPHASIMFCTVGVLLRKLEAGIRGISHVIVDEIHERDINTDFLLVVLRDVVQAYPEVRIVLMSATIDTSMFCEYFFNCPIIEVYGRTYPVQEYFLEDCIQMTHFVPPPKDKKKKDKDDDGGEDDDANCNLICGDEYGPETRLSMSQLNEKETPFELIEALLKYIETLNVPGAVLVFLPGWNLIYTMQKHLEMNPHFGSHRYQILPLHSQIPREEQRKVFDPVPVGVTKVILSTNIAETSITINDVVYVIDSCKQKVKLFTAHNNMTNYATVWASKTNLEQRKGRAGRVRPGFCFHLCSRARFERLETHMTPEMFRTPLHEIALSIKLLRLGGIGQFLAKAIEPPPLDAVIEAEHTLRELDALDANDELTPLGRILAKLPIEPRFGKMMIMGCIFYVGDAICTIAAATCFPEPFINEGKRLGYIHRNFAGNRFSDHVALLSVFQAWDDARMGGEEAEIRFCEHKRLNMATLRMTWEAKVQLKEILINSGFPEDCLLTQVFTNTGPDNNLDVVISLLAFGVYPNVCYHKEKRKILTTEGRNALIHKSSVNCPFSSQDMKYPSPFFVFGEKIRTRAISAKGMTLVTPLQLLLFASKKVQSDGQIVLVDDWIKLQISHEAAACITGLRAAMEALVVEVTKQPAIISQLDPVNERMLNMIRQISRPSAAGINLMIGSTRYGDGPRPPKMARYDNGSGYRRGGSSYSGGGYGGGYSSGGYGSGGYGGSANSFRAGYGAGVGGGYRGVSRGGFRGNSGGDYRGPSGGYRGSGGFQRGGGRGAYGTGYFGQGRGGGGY
# Sequence of FXR1 (chain, as listed by the source): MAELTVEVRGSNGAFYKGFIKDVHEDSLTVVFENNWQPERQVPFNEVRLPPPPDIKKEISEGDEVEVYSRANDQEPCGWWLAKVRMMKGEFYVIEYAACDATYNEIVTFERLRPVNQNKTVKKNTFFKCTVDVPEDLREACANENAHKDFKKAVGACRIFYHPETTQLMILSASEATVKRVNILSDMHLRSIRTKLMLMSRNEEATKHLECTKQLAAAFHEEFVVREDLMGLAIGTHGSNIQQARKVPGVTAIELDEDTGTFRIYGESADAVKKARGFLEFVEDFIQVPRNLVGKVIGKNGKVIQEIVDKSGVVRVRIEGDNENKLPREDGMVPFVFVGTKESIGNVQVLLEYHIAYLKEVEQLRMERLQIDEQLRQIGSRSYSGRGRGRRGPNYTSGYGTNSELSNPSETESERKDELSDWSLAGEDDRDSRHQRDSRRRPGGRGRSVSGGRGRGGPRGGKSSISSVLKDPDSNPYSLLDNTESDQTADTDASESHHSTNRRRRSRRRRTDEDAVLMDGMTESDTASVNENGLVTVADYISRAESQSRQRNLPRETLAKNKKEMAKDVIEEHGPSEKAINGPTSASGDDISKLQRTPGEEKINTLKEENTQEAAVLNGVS
# Sequence of C1GALT1 (chain, as listed by the source): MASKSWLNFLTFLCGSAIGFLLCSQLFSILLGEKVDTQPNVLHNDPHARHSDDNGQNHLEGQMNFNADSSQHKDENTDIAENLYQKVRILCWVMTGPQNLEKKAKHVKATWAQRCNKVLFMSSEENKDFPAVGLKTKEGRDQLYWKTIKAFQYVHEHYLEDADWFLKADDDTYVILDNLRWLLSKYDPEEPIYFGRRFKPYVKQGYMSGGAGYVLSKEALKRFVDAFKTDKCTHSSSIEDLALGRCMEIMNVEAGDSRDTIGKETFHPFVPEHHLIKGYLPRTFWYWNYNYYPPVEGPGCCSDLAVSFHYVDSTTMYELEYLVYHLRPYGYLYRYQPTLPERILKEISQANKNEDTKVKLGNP
# Sequence of CIAPIN1 (chain, as listed by the source): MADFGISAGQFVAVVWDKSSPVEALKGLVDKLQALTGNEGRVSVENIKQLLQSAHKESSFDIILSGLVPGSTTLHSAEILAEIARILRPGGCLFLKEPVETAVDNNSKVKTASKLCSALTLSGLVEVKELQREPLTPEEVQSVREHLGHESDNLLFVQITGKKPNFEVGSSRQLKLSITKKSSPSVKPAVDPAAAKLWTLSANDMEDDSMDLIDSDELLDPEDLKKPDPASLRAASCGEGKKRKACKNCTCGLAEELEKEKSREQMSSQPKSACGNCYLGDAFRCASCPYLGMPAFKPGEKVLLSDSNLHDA
# Sequence of AGO2 (chain, as listed by the source): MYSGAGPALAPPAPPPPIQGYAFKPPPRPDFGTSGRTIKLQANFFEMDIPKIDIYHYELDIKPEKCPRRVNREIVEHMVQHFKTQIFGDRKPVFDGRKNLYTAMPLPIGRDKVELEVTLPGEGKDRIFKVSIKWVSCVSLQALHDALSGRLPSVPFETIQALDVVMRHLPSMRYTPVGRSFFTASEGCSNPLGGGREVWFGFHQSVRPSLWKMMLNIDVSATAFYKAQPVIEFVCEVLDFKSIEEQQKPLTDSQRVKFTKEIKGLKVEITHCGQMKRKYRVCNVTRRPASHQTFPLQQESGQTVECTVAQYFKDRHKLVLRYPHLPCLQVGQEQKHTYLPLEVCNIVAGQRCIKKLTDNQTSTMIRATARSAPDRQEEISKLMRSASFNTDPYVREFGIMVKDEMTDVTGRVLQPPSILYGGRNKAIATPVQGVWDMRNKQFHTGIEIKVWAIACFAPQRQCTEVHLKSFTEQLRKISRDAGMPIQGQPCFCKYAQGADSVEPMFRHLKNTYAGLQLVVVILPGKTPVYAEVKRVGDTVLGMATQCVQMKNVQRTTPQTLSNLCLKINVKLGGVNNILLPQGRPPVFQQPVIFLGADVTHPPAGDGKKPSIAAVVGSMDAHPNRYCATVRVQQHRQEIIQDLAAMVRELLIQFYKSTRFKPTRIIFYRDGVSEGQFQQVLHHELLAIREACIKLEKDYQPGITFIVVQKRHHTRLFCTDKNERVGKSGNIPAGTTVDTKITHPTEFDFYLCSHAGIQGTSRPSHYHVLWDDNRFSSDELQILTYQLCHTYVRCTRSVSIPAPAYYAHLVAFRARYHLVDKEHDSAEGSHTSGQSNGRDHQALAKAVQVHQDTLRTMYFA
# Sequence of BRD2 (chain, as listed by the source): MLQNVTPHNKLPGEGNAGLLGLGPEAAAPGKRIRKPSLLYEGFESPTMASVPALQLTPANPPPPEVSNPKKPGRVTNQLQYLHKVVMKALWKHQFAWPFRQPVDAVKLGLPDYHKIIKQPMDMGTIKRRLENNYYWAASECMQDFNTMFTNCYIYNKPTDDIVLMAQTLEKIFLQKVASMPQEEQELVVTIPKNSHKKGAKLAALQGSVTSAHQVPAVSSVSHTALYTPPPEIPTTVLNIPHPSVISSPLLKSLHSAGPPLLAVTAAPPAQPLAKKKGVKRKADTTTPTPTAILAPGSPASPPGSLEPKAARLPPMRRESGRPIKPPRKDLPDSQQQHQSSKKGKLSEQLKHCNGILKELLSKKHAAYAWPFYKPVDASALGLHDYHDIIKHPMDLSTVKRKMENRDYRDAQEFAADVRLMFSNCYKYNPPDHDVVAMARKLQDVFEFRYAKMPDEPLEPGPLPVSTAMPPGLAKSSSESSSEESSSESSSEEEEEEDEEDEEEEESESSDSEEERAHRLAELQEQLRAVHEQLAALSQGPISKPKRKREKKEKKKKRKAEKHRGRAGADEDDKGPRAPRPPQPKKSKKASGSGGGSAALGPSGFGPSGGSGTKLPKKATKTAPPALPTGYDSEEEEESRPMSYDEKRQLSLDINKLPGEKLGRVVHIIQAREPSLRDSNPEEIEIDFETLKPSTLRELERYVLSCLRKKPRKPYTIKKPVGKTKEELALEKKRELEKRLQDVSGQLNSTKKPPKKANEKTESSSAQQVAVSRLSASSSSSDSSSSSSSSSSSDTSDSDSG
Substance,solubility in G1/S (log2) [1],melting temperature ([2]; cell cycle stage: G1/S) [°C],melting temperature ([2]; cell cycle stage: mitosis) [°C],solubility change mitosis (log2) [3],"thermal stability score [4, 5]",thermal stability score ([4]; cell cycle stage: mitosis)
ABCC1,0.0337,54.5,53.7,-0.0751,-0.781,-0.316
AGO2,-0.133,51.5,52.6,0.0495,2.34,-0.539
AKAP13,-0.0395,50.6,49.6,-0.118,-0.167,1.43
ALDH6A1,0.179,49.3,49.9,-0.072,0.0292,0.822
ANKHD1,-0.0494,47.9,49.4,-0.0108,0.478,1.9
ASAP1,0.0639,50.5,51.1,-0.0861,0.472,0.143
ATP5H,0.0908,54.9,52.9,0.46,-5.39,-6.92
ATP7A,0.00927,51.7,51.1,-0.147,-0.475,-0.996
ATR,-0.368,50.7,50.5,-0.097,-0.0687,0.0624
BCOR,-0.157,47.6,50.1,0.38,0.368,1.08
BRD2,-0.0635,47.9,49.1,0.202,0.901,2.29
BTAF1,-0.142,50,50.1,-0.118,0.553,1.71
C1GALT1,0.222,53.7,53.6,-0.0544,-1.2,0.982
C20ORF27,0.205,53.3,54.8,-0.035,-0.424,-1.13
CC2D1A,0.298,49.7,49.6,-0.0691,0.931,0.615
CENPF,-0.00455,48.9,49.7,0.109,2.12,0.418
CIAPIN1,0.471,50.7,51.7,-0.0971,0.785,3.13
CLTC,-0.168,51.4,50.6,-0.171,-1.37,1.15
COL4A2,0.038,53.4,55.3,0.0703,0.58,-0.541
CREBBP,-0.265,52,53.2,0.0153,-0.935,-0.841
DHX9,-0.671,50.5,50.5,0.211,1.02,2.63

Substance,solubility in G1/S (log2) [1],melting temperature ([2]; cell cycle stage: G1/S) [°C],melting temperature ([2]; cell cycle stage: mitosis) [°C],solubility change mitosis (log2) [3],"thermal stability score [4, 5]",thermal stability score ([4]; cell cycle stage: mitosis)
DOCK9,-0.203,51.4,50.6,-0.156,-0.162,-0.395
DSP,-0.687,46.7,46.6,-0.0238,-3.13,0.479
EIF4G3,0.109,49.1,49.4,-0.178,0.306,2.44
EPPK1,-2.27,–,51.3,0.311,-7.26,-8.82
ERH,-2.12,52.5,51.6,0.912,-4.51,-3.17
FASN,-0.0375,52.1,51.8,-0.203,-0.721,0.266
FLNA,-0.000309,50.2,50.3,-0.105,-0.0595,2.86
FRYL,-0.239,49.7,52.1,-0.116,-0.342,0.441
FXR1,-0.859,50.3,50.8,0.215,-2.47,2.23
MTGGRFDFDDGGTYCGGWEEGKAHGHGICTGPKGQGEYSGSWSHGFEVVGGYTWPSGNTYQGYWAQGKRHGLGVETKGKWMYRGEWSHGFKGRYGVRQSLCTPARYEGTWSNGLQDGYGVETYGDGGTYQGQWAGGMRHGYGVRQSVPYGMATVIRSPLRTSLASLRSEQSNGSVLHDAAAAADSPAGTRGGFVLNFHADAELAGKKKGGLFRRGSLLGSMKLRKSESKSSISSKRSSVRSDAAMSRISSSDANSTISFGDVDCDFCPVEDHVDATTTETYMGEWKNDKRNGFGVSERSNGMKYEGEWANNKRHGYGCTVFPDGSKEEGKYKNNILVRGIRKQLIPIRHTKTREKVDRAIEGAQRAAAMARTKVEIANSRTAHARAKADAADQAALAARQECDIARAVARELSPDFYQPGPDYVKQRFQEGVDAKENPEEKVPEKPPTPKESPHFYRKGTTPPRSPEASPKHSHSPASSPKPLKKQNPSSGARLNQDKRSVADEQVTAIVNKPLMSKAPTKEAGAVVPQSKYSGRHHIPNPSNGELHSQYHGYYVKLNAPQHPPVDVEDGDGSSQSSSALVHKPSANKWSPSKSVTKPVAKESKAEPKAKKSELAIPKNPASNDSCPALEKEANSGPNSIMIVLVMLLNIGLAILFVHFLT [JPH1],-0.419,–,51.7,0.108,–,–
MTTKDYPSLWGFGTTKTFKIPIEHLDFKYIEKCSDVKHLEKILCVLRSGEEGYYPELTEFCEKHLQALAPESRALRKDKPAATAASFTAEEWEKIDGDIKSWVSEIKKEEDKMHFHETETFPAMKDNLPPVRGSNSCLHVGKEKYSKRPTKKKTPRDYAEWDKFDVEKECLKIDEDYKEKTVIDKSHLSKIETRIDTAGLTEKEKDFLATREKEKGNEAFNSGDYEEAVMYYTRSISALPTVVAYNNRAQAEIKLQNWNSAFQDCEKVLELEPGNVKALLRRATTYKHQNKLREATEDLSKVLDVEPDNDLAKKTLSEVERDLKNSEAASETQTKGKRMVIQEIENSEDEEGKSGRKHEDGGGDKKPAEPAGAARAAQPCVMGNIQKKLTGKAEGGKRPARGAPQRGQTPEAGADKRSPRRASAAAAAGGGATGHPGGGQGAENPAGLKSQGNELFRSGQFAEAAGKYSAAIALLEPAGSEIADDLSILYSNRAACYLKEGNCSGCIQDCNRALELHPFSMKPLLRRAMAYETLEQYGKAYVDYKTVLQIDCGLQLANDSVNRLSRILMELDGPNWREKLSPIPAVPASVPLQAWHPAKEMISKQAGDSSSHRQQGITDEKTFKALKEEGNQCVNDKNYKDALSKYSECLKINNKECAIYTNRALCYLKLCQFEEAKQDCDQALQLADGNVKAFYRRALAHKGLKNYQKSLIDLNKVILLDPSIIEAKMELEEVTRLLNLKDKTAPFNKEKERRKIEIQEVNEGKEEPGRPAGEVSMGCLASEKGGKSSRSPEDPEKLPIAKPNNAYEFGQIINALSTRKDKEACAHLLAITAPKDLPMFLSNKLEGDTFLLLIQSLKNNLIEKDPSLVYQHLLYLSKAERFKMMLTLISKGQKELIEQLFEDLSDTPNNHFTLEDIQALKRQYEL [SPAG1],0.51,49.2,48.5,-0.0757,–,–
MVGEMETKEKPKPTPDYLMQLMNDKKLMSSLPNFCGIFNHLERLLDEEISRVRKDMYNDTLNGSTEKRSAELPDAVGPIVQLQEKLYVPVKEYPDFNFVGRILGPRGLTAKQLEAETGCKIMVRGKGSMRDKKKEEQNRGKPNWEHLNEDLHVLITVEDAQNRAEIKLKRAVEEVKKLLVPAAEGEDSLKKMQLMELAILNGTYRDANIKSPALAFSLAATAQAAPRIITGPAPVLPPAALRTPTPAGPTIMPLIRQIQTAVMPNGTPHPTAAIVPPGPEAGLIYTPYEYPYTLAPATSILEYPIEPSGVLGAVATKVRRHDMRVHPYQRIVTADRAATGN [QKI],0.613,50.2,49.8,-0.0775,–,–
MVNSSRVQPQQPGDAKRPPAPRAPDPGRLMAGCAAVGASLAAPGGLCEQRGLEIEMQRIRQAAARDPPAGAAASPSPPLSSCSRQAWSRDNPGFEAEEEEEEVEGEEGGMVVEMDVEWRPGSRRSAASSAVSSVGARSRGLGGYHGAGHPSGRRRRREDQGPPCPSPVGGGDPLHRHLPLEGQPPRVAWAERLVRGLRGLWGTRLMEESSTNREKYLKSVLRELVTYLLFLIVLCILTYGMMSSNVYYYTRMMSQLFLDTPVSKTEKTNFKTLSSMEDFWKFTEGSLLDGLYWKMQPSNQTEADNRSFIFYENLLLGVPRIRQLRVRNGSCSIPQDLRDEIKECYDVYSVSSEDRAPFGPRNGTAWIYTSEKDLNGSSHWGIIATYSGAGYYLDLSRTREETAAQVASLKKNVWLDRGTRATFIDFSVYNANINLFCVVRLLVEFPATGGVIPSWQFQPLKLIRYVTTFDFFLAACEIIFCFFIFYYVVEEILEIRIHKLHYFRSFWNCLDVVIVVLSVVAIGINIYRTSNVEVLLQFLEDQNTFPNFEHLAYWQIQFNNIAAVTVFFVWIKLFKFINFNRTMSQLSTTMSRCAKDLFGFAIMFFIIFLAYAQLAYLVFGTQVDDFSTFQECIFTQFRIILGDINFAEIEEANRVLGPIYFTTFVFFMFFILLNMFLAIINDTYSEVKSDLAQQKAEMELSDLIRKGYHKALVKLKLKKNTVDDISESLRQGGGKLNFDELRQDLKGKGHTDAEIEAIFTKYDQDGDQELTEHEHQQMRDDLEKEREDLDLDHSSLPRPMSSRSFPRSLDDSEEDDDEDSGHSSRRRGSISSGVSYEEFQVLVRRVDRMEHSIGSIVSKIDAVIVKLEIMERAKLKRREVLGRLLDGVAEDERLGRDSEIHREQMERLVREELERWESDDAASQISHGLGTPVGLNGQPRPRSSRPSSSQSTEGMEGAGGNGSSNVHV [PKD2],0.00411,52.1,–,-0.0995,–,–
MVPGSEGPARAGSVVADVVFVIEGTANLGPYFEGLRKHYLLPAIEYFNGGPPAETDFGGDYGGTQYSLVVFNTVDCAPESYVQCHAPTSSAYEFVTWLDGIKFMGGGGESCSLIAEGLSTALQLFDDFKKMREQIGQTHRVCLLICNSPPYLLPAVESTTYSGCTTENLVQQIGERGIHFSIVSPRKLPALRLLFEKAAPPALLEPLQPPTDVSQDPRHMVLVRGLVLPVGGGSAPGPLQSKQPVPLPPAAPSGATLSAAPQQPLPPVPPQYQVPGNLSAAQVAAQNAVEAAKNQKAGLGPRFSPITPLQQAAPGVGPPFSQAPAPQLPPGPPGAPKPPPASQPSLVSTVAPGSGLAPTAQPGAPSMAGTVAPGGVSGPSPAQLGAPALGGQQSVSNKLLAWSGVLEWQEKPKPASVDANTKLTRSLPCQVYVNHGENLKTEQWPQKLIMQLIPQQLLTTLGPLFRNSRMVQFHFTNKDLESLKGLYRIMGNGFAGCVHFPHTAPCEVRVLMLLYSSKKKIFMGLIPYDQSGFVNGIRQVITNHKQVQQQKLEQQQRGMGGQQAPPGLGPILEDQARPSQNLLQLRPPQPQPQGTVGASGATGQPQPQGTAQPPPGAPQGPPGAASGPPPPGPILRPQNPGANPQLRSLLLNPPPPQTGVPPPQASLHHLQPPGAPALLPPPHQGLGQPQLGPPLLHPPPAQSWPAQLPPRAPLPGQMLLSGGPRGPVPQPGLQPSVMEDDILMDLI [MED25],0.612,52.1,50.9,-0.172,–,–
MVTEQEVDAIGQTLVDPKQPLQARFRALFTLRGLGGPGAIAWISQAFDDDSALLKHELAYCLGQMQDARAIPMLVDVLQDTRQEPMVRHEAGEALGAIGDPEVLEILKQYSSDPVIEVAETCQLAVRRLEWLQQHGGEPAAGPYLSVDPAPPAEERDVGRLREALLDESRPLFERYRAMFALRNAGGEEAALALAEGLHCGSALFRHEVGYVLGQLQHEAAVPQLAAALARCTENPMVRHECAEALGAIARPACLAALQAHADDPERVVRESCEVALDMYEHETGRAFQYADGLEQLRGAPS [DOHH],0.137,50.3,50.6,0.308,–,–
MWVCSTLWRVRTPARQWRGLLPASGCHGPAASSYSASAEPARVRALVYGHHGDPAKVVELKNLELAAVRGSDVRVKMLAAPINPSDINMIQGNYGFLPELPAVGGNEGVAQVVAVGSNVTGLKPGDWVIPANAGLGTWRTEAVFSEEALIQVPSDIPLQSAATLGVNPCTAYRMLMDFEQLQPGDSVIQNASNSGVGQAVIQIAAALGLRTINVVRDRPDIQKLSDRLKSLGAEHVITEEELRRPEMKNFFKDMPQPRLALNCVGGKSSTELLRQLARGGTMVTYGGMAKQPVVASVSLLIFKDLKLRGFWLSQWKKDHSPDQFKELILTLCDLIRRGQLTAPACSQVPLQDYQSALEASMKPFISSKQILTM [MECR],0.282,55,54.1,-0.0123,–,–
PTPRS,0.148,51.6,–,-0.268,–,–
RCOR3,0.375,49.1,50,0.101,–,–
USP32,-0.319,50.4,50.3,-0.0623,–,–
ZFHX3,-0.242,48.7,49.3,0.302,–,–
